Measured values as given in patent US20130336893A1 (Sanofi, published 2013).
*1 amine or outer side, *2 acyl side, *3 side chain or, on linkers, in order; H or OH if unused. Where no end group is shown, it is not given here. Side-chain parts run from the residue outwards. [ ]: non-standard residue; d: D form. The star is where a group is joined. γGlu = O=C(O)[C@H](CCC(=O)[*:2])N[*:1]; Stearoyl = CCCCCCCCCCCCCCCCCC(=O)*; Palmitoyl = CCCCCCCCCCCCCCCC(=O)*; Aib = CC(C)(N)C(=O)O

Tests used:
human glucagon receptor = human glucagon receptor (human, UniProt P47871 26-477); experiment: cell-based or functional assay
human GLP-1 receptor = human GLP-1 receptor (human, UniProt P43220 24-463); experiment: cell-based or functional assay

human glucagon receptor, sequence (P47871 26-477): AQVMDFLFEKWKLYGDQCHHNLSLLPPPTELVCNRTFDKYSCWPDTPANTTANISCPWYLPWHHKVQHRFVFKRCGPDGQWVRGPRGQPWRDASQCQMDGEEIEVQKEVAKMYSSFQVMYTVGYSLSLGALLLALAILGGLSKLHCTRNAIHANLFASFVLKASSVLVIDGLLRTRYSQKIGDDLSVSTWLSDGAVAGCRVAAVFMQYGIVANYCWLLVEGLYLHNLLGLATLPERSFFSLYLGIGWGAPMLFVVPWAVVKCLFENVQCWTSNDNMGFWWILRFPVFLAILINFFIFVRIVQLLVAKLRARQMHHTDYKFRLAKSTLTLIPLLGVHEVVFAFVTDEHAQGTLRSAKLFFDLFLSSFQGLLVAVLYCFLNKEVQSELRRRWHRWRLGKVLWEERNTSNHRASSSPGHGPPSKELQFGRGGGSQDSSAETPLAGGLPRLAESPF

B1: SEQ ID NO: (83) (peptide)
peptide: Ac-H[dS]QGTFTSDLSKQMESRRAQDFIEWLKSGGPSSGAPPPSK([γGlu-Palmitoyl])-NH2
EC50 hGlucagonR (cAMP formation) (human glucagon receptor): 0.375 nM | EC50 hGLP-1R (cAMP formation) (human GLP-1 receptor): 0.369 nM

B2: SEQ ID NO: (80) (peptide)
peptide: H[dS]QGTFTSDLSKQMESRRAQDFIEWLK[Aib]GGPSSGAPPPK([γGlu-Palmitoyl])-NH2
modifications: N-terminus assumed
SMILES: CCCCCCCCCCCCCCCC(=O)N[C@@H](CCC(=O)NCCCC[C@H](NC(=O)[C@@H]1CCCN1C(=O)[C@@H]1CCCN1C(=O)[C@@H]1CCCN1C(=O)[C@H](C)NC(=O)CNC(=O)[C@H](CO)NC(=O)[C@H](CO)NC(=O)[C@@H]1CCCN1C(=O)CNC(=O)CNC(=O)C(C)(C)NC(=O)[C@H](CCCCN)NC(=O)[C@H](CC(C)C)NC(=O)[C@H](Cc1c[nH]c2ccccc12)NC(=O)[C@H](CCC(=O)O)NC(=O)[C@@H](NC(=O)[C@H](Cc1ccccc1)NC(=O)[C@H](CC(=O)O)NC(=O)[C@H](CCC(N)=O)NC(=O)[C@H](C)NC(=O)[C@H](CCCNC(=N)N)NC(=O)[C@H](CCCNC(=N)N)NC(=O)[C@H](CO)NC(=O)[C@H](CCC(=O)O)NC(=O)[C@H](CCSC)NC(=O)[C@H](CCC(N)=O)NC(=O)[C@H](CCCCN)NC(=O)[C@H](CO)NC(=O)[C@H](CC(C)C)NC(=O)[C@H](CC(=O)O)NC(=O)[C@H](CO)NC(=O)[C@@H](NC(=O)[C@H](Cc1ccccc1)NC(=O)[C@@H](NC(=O)CNC(=O)[C@H](CCC(N)=O)NC(=O)[C@@H](CO)NC(=O)[C@@H](N)Cc1c[nH]cn1)[C@@H](C)O)[C@@H](C)O)[C@@H](C)CC)C(N)=O)C(=O)O
EC50 hGlucagonR (cAMP formation) (human glucagon receptor): 0.0381 nM | EC50 hGLP-1R (cAMP formation) (human GLP-1 receptor): 0.0108 nM

B3: SEQ ID NO: (85) (peptide)
peptide: H[dS]QGTFTSDLSKQMESRRAQDFIEWLKSGGPSSGAPPPSK(Stearoyl)-NH2
EC50 hGlucagonR (cAMP formation) (human glucagon receptor): 0.009 nM | EC50 hGLP-1R (cAMP formation) (human GLP-1 receptor): 0.0064 nM

B4: SEQ ID NO: (82) (peptide)
peptide: GH[dS]QGTFTSDLSKQMESRRAQDFIEWLKSGGPSSGAPPPSK([γGlu-Palmitoyl])-NH2
EC50 hGlucagonR (cAMP formation) (human glucagon receptor): 5.52 nM | EC50 hGLP-1R (cAMP formation) (human GLP-1 receptor): 2.59 nM

B5: SEQ ID NO: (81) (peptide)
peptide: H[dS]QGTFTSDLSKQMESRRAQDFIEWLK[Aib]GGPSSGAPPPK(Palmitoyl)-NH2
EC50 hGlucagonR (cAMP formation) (human glucagon receptor): 0.0293 nM | EC50 hGLP-1R (cAMP formation) (human GLP-1 receptor): 0.0197 nM

B6: SEQ ID NO: (86) (peptide)
peptide: H[dS]QGTFTSDLSKQMESRRAQDFIEWLKSGGPSSGAPPPSK([γGlu-tocopheryl‑succinyl])-NH2
EC50 hGlucagonR (cAMP formation) (human glucagon receptor): 0.0218 nM | EC50 hGLP-1R (cAMP formation) (human GLP-1 receptor): 0.0281 nM

B7: SEQ ID NO: (84) (peptide)
peptide: H[dS]QGTFTSDLSKQMESRRAQDFIEWLKSGGPSSGAPPPSK([γGlu-Stearoyl])-NH2
EC50 hGlucagonR (cAMP formation) (human glucagon receptor): 0.0138 nM | EC50 hGLP-1R (cAMP formation) (human GLP-1 receptor): 0.0039 nM
